Biological target: human PDL1 stably expressed on CHO cells (human) (UniProt Q9NZQ7)
Sequence (Q9NZQ7 19-290 limits assumed): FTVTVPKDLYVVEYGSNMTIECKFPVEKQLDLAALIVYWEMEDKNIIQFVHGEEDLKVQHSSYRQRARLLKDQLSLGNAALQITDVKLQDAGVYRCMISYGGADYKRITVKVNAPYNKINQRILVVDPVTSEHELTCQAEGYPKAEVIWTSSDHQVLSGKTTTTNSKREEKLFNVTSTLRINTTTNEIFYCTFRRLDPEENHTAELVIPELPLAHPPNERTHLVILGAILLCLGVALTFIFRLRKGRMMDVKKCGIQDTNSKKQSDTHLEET

EC50; NFAT luciferase reporter (RLU), CHO cells with human PDL1 co-incubated with Jurkat cells with human PD1 and NFAT reporter, blocking of PDL1/PD1: 0.0532 nM
Substance: Reference Ab 1 (analog of MPDL3280A) (antibody)

— patent US20250320297A1
